Assay results from US20160113911A1, “METHODS AND COMPOSITIONS FOR THE TREATMENT OF CANCER” (THE GENERAL HOSPITAL CORPORATION, priority 2013, published 2016).
Substitutions are numbered along the chain they refer to. Names and notes keep the numbering of the source.

B1: 2A-R498H: KDM4A mutation (protein)
chain: MASESETLNPSARIMTFYPTMEEFRNFSRYIAYIESQGAHRAGLAKVVPPKEWKPRASYDDIDDLVIPAPIQQLVTGQSGLFTQYNIQKKAMTVREFRKIANSDKYCTPRYSEFEELERKYWKNLTFNPPIYGADVNGTLYEKHVDEWNIGRLRTILDLVEKESGITIEGVNTPYLYFGMWKTSFAWHTEDMDLYSINYLHFGEPKSWYSVPPEHGKRLERLAKGFFPGSAQSCEAFLRHKMTLISPLMLKKYGIPFDKVTQEAGEFMITFPYGYHAGFNHGFNCAESTNFATRRWIEYGKQAVLCSCRKDMVKISMDVFVRKFQPERYKLWKAGKDNTVIDHTLPTPEAAEFLKESELPPRAGNEEECPEEDMEGVEDGEEGDLKTSLAKHRIGTKRHRVCLEIPQEVSQSELFPKEDLSSEQYEMTECPAALAPVRPTHSSVRQVEDGLTFPDYSDSTEVKFEELKNVKLEEEDEEEEQAAAALDLSVNPASVGGHLVFSGSKKKSSSSLGSGSSRDSISSDSETSEPLSCRAQGQTGVLTVHSYAKGDGRVTVGEPCTRKKGSAARSFSERELAEVADEYMFSLEENKKSKGRRQPLSKLPRHHPLVLQECVSDDETSEQLTPEEEAEETEAWAKPLSQLWQNRPPNFEAEKEFNETMAQQAPHCAVCMIFQTYHQVEFGGFNQNCGNASDLAPQKQRTKPLIPEMCFTSTGCSTDINLSTPYLEEDGTSILVSCKKCSVRVHASCYGVPPAKASEDWMCSRCSANALEEDCCLCSLRGGALQRANDDRWVHVSCAVAILEARFVNIAERSPVDVSKIPLPRFKLKCIFCKKRRKRTAGCCVQCSHGRCPTAFHVSCAQAAGVMMQPDDWPFVVFITCFRHKIPNLERAKGALQSITAGQKVISKHKNGRFYQCEVVRLTTETFYEVNFDDGSFSDNLYPEDIVSQDCLQFGPPAEGEVVQVRWTDGQVYGAKFVASHPIQMYQVEFEDGSQLVVKRDDVYTLDEELPKRVKSRLSVASDMRFNEIFTEKEVKQEKKRQRVINSRYREDYIEPALYRAIME
B2: 2A-E558Q: KDM4A mutation (protein)
chain: B1 chain with H498R, E558Q
B3: 2A-D524V: KDM4A mutation (protein)
chain: B1 chain with H498R, D524V
B4: 2A-R765Q: KDM4A mutation (protein)
chain: B1 chain with H498R, R765Q
B5: 2A-V743I*: KDM4A mutation (protein, UniProt O75164 2-1064, looked up, variant V743I)
Lysine-specific demethylase 4A: ASESETLNPSARIMTFYPTMEEFRNFSRYIAYIESQGAHRAGLAKVVPPKEWKPRASYDDIDDLVIPAPIQQLVTGQSGLFTQYNIQKKAMTVREFRKIANSDKYCTPRYSEFEELERKYWKNLTFNPPIYGADVNGTLYEKHVDEWNIGRLRTILDLVEKESGITIEGVNTPYLYFGMWKTSFAWHTEDMDLYSINYLHFGEPKSWYSVPPEHGKRLERLAKGFFPGSAQSCEAFLRHKMTLISPLMLKKYGIPFDKVTQEAGEFMITFPYGYHAGFNHGFNCAESTNFATRRWIEYGKQAVLCSCRKDMVKISMDVFVRKFQPERYKLWKAGKDNTVIDHTLPTPEAAEFLKESELPPRAGNEEECPEEDMEGVEDGEEGDLKTSLAKHRIGTKRHRVCLEIPQEVSQSELFPKEDLSSEQYEMTECPAALAPVRPTHSSVRQVEDGLTFPDYSDSTEVKFEELKNVKLEEEDEEEEQAAAALDLSVNPASVGGRLVFSGSKKKSSSSLGSGSSRDSISSDSETSEPLSCRAQGQTGVLTVHSYAKGDGRVTVGEPCTRKKGSAARSFSERELAEVADEYMFSLEENKKSKGRRQPLSKLPRHHPLVLQECVSDDETSEQLTPEEEAEETEAWAKPLSQLWQNRPPNFEAEKEFNETMAQQAPHCAVCMIFQTYHQVEFGGFNQNCGNASDLAPQKQRTKPLIPEMCFTSTGCSTDINLSTPYLEEDGTSILVSCKKCSIRVHASCYGVPPAKASEDWMCSRCSANALEEDCCLCSLRGGALQRANDDRWVHVSCAVAILEARFVNIAERSPVDVSKIPLPRFKLKCIFCKKRRKRTAGCCVQCSHGRCPTAFHVSCAQAAGVMMQPDDWPFVVFITCFRHKIPNLERAKGALQSITAGQKVISKHKNGRFYQCEVVRLTTETFYEVNFDDGSFSDNLYPEDIVSQDCLQFGPPAEGEVVQVRWTDGQVYGAKFVASHPIQMYQVEFEDGSQLVVKRDDVYTLDEELPKRVKSRLSVASDMRFNEIFTEKEVKQEKKRQRVINSRYREDYIEPALYRAIME
B6: 2A-R825C*: KDM4A mutation (protein, UniProt O75164 2-1064, looked up, variant R825C)
Lysine-specific demethylase 4A: B5 Lysine-specific demethylase 4A with I742V, R824C
B7: 2A-R825H*: KDM4A mutation (protein, UniProt O75164 2-1064, looked up, variant R825H)
Lysine-specific demethylase 4A: B5 Lysine-specific demethylase 4A with I742V, R824H

system: H3K36me3; experiment: H3K36 demethylase activity of KDM4A variants in transfected cells (immunofluorescence); type: cell-based; set-up: key: + indicates active; − indicates inactive; +/− indicates partial acitivty; details: KDM4A mutations
Experimental: The indicated NHF-tagged KDM4A deletion constructs were transfected into RPE cells grown on coverslips in 10 cm dishes using X-tremeGENE 9™ DNA transfection reagent (Roche). H3K36me3 and subcellular localization were assayed by examining transfected cells (positive for HA staining; HA.11 Covance) following fixation in 3.7% PFA in PBS (Whetstine et al., 2006).
All immunofluorescence experiments were performed as in (Black et al., 2013). For the localization experiment a minimum of 50 cells were blinded and scored. For the catalytic activity, cells overexpressing a high level of KDM4A WT or SNP-A482 were analyzed in a non quantitative manner.

| Molecule | H3k36 Demethylase Activity |
| --- | --- |
| B1 | + |
| B2 | + |
| B3 | + |
| B4 | − |
| B5 | + |
| B6 | + |
| B7 | + |

system: H3K9me3; experiment: H3K9 demethylase activity of KDM4 variants in transfected cells; type: cell-based; set-up: key: + indicates active; − indicates inactive; +/− indicates partial acitivty; details: KDM4A mutations

| Molecule | H3k9 Demethylase Activity |
| --- | --- |
| B1 | + |
| B2 | + |
| B3 | + |
| B4 | − |
| B5 | + |
| B6 | + |
| B7 | + |
